For assay [1], the target named is T1, SARS-CoV-2 (COVID-19) S protein RBD (cat. SPD-C5255, lot. BV3539b-203FF1-203K) (SARS-CoV-2, UniProt P0DTC2 319-537).
The target in assay [2] is T2, S ecto U (SARS-CoV-2, UniProt P0DTC2 16-1213).
T2 construct: also called ecto-domain of the spike protein
As to the kind of experiment: SPR, ProteOn XPR36, fitted curves (FIG. 9c). (In general: Surface plasmon resonance follows binding to a sensor surface in real time, without labels.)

For assay [3], the target named is T2, S ecto U.
Assay [4] has as its target T3, bio-S1 Acro (SARS-CoV-2, UniProt P0DTC2 16-685). As to the kind of experiment: SPR.
In assay [5] the target is T4, bio-S ecto Sino (SARS-CoV-2, UniProt P0DTC2 16-1213).
T4 construct: also called SARS-CoV-2 Spike Protein (Sino Biologics, cat. 40589-V08B1); SARS-Cov-2 S protein (S1+S2 ECT, His-tag)
As to the kind of experiment: single trace.

The target of another assay is bio-RBD Fc Acro (SARS-CoV-2). As to the kind of experiment: SPR, single trace.
Assay [6] concerns the target T4, bio-S ecto Sino.
For assay [7], the target named is T4, bio-S ecto Sino. The source holds these as a separate data set.
Assay [8] deals with T4, bio-S ecto Sino. This is another data set of the same source.
The target in assay [9] is T3, bio-S1 Acro. As to the kind of experiment: SPR, single trace.
The target of assay [10] is T1, SARS-CoV-2 (COVID-19) S protein RBD …. The source holds these as a separate data set.

Positions count from the first letter of the chain named. Where two headings read alike, the source gives them in different places.

B1: ALE030 (designed binder)
chain: MRGSHHHHHHGSDLGKKLLEAARAGQDDEVRELLKAGADVNAKDYFSHTPLHLAARNGHLKIVEVLLKAGADVNAKDFAGKTPLHLAANEGHLEIVEVLLKAGADVNAQDIFGKTPADIAADAGHEDIAEVLQKAAGSPTPTPTTPTPTPTTPTPTPTGSDLGKKLLEAARAGQDDEVRELLKAGADVNAKDYFSHTPLHLAARNGHLKIVEVLLKAGADVNAKDFAGKTPLHLAANEGHLEIVEVLLKAGADVNAQDIFGKTPADIAADAGHEDIAEVLQKAAGSPTPTPTTPTPTPTTPTPTPTGSDLGKKLLQAARAGQLDEVRELLKAGADVNAKDREGITPLHLAAQHGHLEIVEVLLKAGADVNAKDVWGRTPLHLAAWQGHLEIVEVLLKAGADVNAKDLAGATPLHVAALYGHLEIVEVLLKAGADVNAQDKSGKTPADLAARAGHQDIAEVLQKAAGSPTPTPTTPTPTPTTPTPTPTGSDLGNKLLDAAWVGQDDEVRILLAAGADVNAKDWQGETPLHLAATKGHLEIVEVLLKAGADVNAKDVVGYTPLHVAASQGHLEIVEVLLKAGADVNAQDVHGYTPADLAAQAGHEDIAEVLQKAAGSPTPTPTTPTPTPTTPTPTPTGSDLGKKLLQAARAGQLDEVRELLKAGADVNAKDREGKTPLHVAAQEGHLEIVEVLLKAGADVNAKDVWGRTPLHLAAWIGHLEIVEVLLKAGADVNAKDVSGATPLHAAALHGHLEIVEVLLNAGADVNAQDKSGKTPADLAARAGHQDIAEVLQKAA
In the case of B1, in assay [1], binding was characterised by a dissociation constant (Kd) of 0.142 pM, the koff stood at 1.15e-07 s⁻¹ and the kon amounted to 810000 M⁻¹ s⁻¹.

B2: vS07_14G03 (designed binder)
chain: MRGSHHHHHHGSDLGQKLLHAAQYGQDDEVRILLAAGADVNAKDKQGNTPLHIAAFHGHLEIVEVLLKAGADVNAKDQWGLTPLHLAAAWGHLEIVEVLLKAGADVNAQDNYGQTPADLAAESGHEDIAEVLQKAA
notes: also called S2a
In the assay with S ecto U [2], B2 came in with a Kd of 0.79 nM. In the assay with S ecto U [3], this molecule displayed a koff of 0.00352 s⁻¹ and a kon of 4.49e+06 M⁻¹ s⁻¹.

B3: vS07_08F10v47 (designed binder)
chain: MRGSHHHHHHGSDLGKKLLLAARAGQLDEVRILLKAGADVNAKDVFGQTPLHTAAVAGHLEIVEVLLKAGADVNAKDKVGYTPLHLAAQSGHLEIVEVLLKAGADVNAKDVVGVTPADLAAFEGHQDIAEVLQKAA
On to B3, for which the binding result with bio-S1 Acro [4] is recorded as “binds”.

B4: vS07_07F02 (designed binder)
chain: MRGSHHHHHHGSDLGLKLLTAAKQGQDDEVRILLAAGADVNAKDYRGLTPLHYAAAIGHLEIVEVLLKAGADVNAKDQYGATPLHVAAYIGHLEIVEVLLKAGADVNAQDFSGSTPADLAAEEGHEDIAEVLQKAA
notes: also called RN1
In turn, B4 yielded a Kd in the assay with bio-S ecto Sino [5] of 14 nM. Besides, the binding result with bio-RBD Fc Acro is on record as “binds”.

B5: vS07_23E04 (designed binder)
chain: MRGSHHHHHHGSDLGKKLLQAARAGQLDEVRELLKAGADVNAKDQEGITPLHVAAHQGHLEIVEVLLKAGADVNAKDVWGRTPLHLAAWRGHLEIVEVLLKAGADVNAKDHAGATPLHAAALSGHLEIVEVLLKAGADVNAQDKSGKTPADLAARAGHQDIAEVLQKAA
notes: also called R3c
In the assay with bio-S ecto Sino [6], B5 came in with a koff of 0.000234 s⁻¹ and a kon of 2.59e+06 M⁻¹ s⁻¹. Besides, the binding result with bio-RBD Fc Acro is listed as “binds”. In the assay with bio-S ecto Sino [7], this molecule showed a Kd of 0.09 nM.

B6: vS07_12C06 (designed binder)
chain: B5 chain with Q45R, I48K, H56Q, Q57E, R90I, H111V, A112S, S123H, K134N
notes: also called R1b; Rb1
With B6, the binding result with bio-RBD Fc Acro is listed as “binds”. Further, binding with bio-S ecto Sino [7] was put at a Kd of 0.021 nM. Further, in the assay with bio-S ecto Sino [8], the koff amounted to 2.64e-05 s⁻¹ and the kon is 1.26e+06 M⁻¹ s⁻¹.

B7: vS07_06F12 (designed binder)
chain: B5 chain with Q45R, I48W, V53L, W79F, R90V, H111V, A112S, A119P, L122I, S123Y
notes: also called R1a
Regarding B7, the binding result with bio-RBD Fc Acro was “binds”. In the assay with bio-S ecto Sino [7], binding was characterised by a dissociation constant (Kd) of 0.25 nM. Also, in the assay with bio-S ecto Sino [8], the koff was 0.000243 s⁻¹ and the kon is 963000 M⁻¹ s⁻¹.

B8: vS07_29B10 (designed binder)
chain: B5 chain with Q45R, V53L, H56Q, Q57H, R90Q, H111L, A119V, S123Y
notes: also called R3b
B8: in the assay with bio-S ecto Sino [6], the koff was found to be 0.000148 s⁻¹ and the kon was found to be 1.82e+06 M⁻¹ s⁻¹. The binding result with bio-RBD Fc Acro is reported as “binds”. For the same molecule, binding with bio-S ecto Sino [7] was put at a Kd of 0.081 nM.

B9: vS07_22E12 (designed binder)
chain: MRGSHHHHHHGSDLGKKLLQAARAGQLDEVRELLKAGADVNAKDKIGVTPLHIAAEVGHLEIVEVLLKAGADVNAKDVWGRTPLHLAAWSGHLEIVEVLVKAGADVNAKDIAGATPLHAAALFGHLEIVEVLLKVGADVNAQDKSGKTPADLAARAGHQDIAEVLQKAA
notes: also called R3a
Consider B9, for which, in the assay with bio-S ecto Sino [6], the koff was 0.000308 s⁻¹ and the kon came out at 1.3e+06 M⁻¹ s⁻¹. In addition, the binding result in the assay with bio-RBD Fc Acro is listed as “binds”. In the assay with bio-S ecto Sino [7], this molecule displayed a Kd of 0.24 nM.

B10: vS07_08F10 (designed binder)
chain: MRGSHHHHHHGSDLGHKLLLAAQAGQDDEVRILLAAGADVNAKDVFGQTPLHVAAVAGHLEIVEVLLKAGADVNAKDSIGYTPLHHAARVGHLEIVEVLLKAGADVNAQDWIGITPADLAAFEGHEDIAEVLQKAA
notes: also called S1a
In the assay with bio-S1 Acro [9], B10 yielded a Kd of 20 nM. In the assay with S ecto U [2], binding was put at a Kd of 1.2 nM. In the assay with S ecto U [3], this molecule had a koff of 0.00086 s⁻¹ and a kon of 695000 M⁻¹ s⁻¹.

B11: vS07_08F10v27 (designed binder)
chain: B10 chain with H16K, Q23R, D27L, A35K, Q109K, E126Q
For B11, the binding result with bio-S1 Acro [4] is recorded as “binds”.

B12: ALE033 (designed binder)
chain: MRGSHHHHHHGSDLGKKLLEAARAGQDDEVRELLKAGADVNAKDYFSHTPLHLAARNGHLKIVEVLLKAGADVNAKDFAGKTPLHLAANEGHLEIVEVLLKAGADVNAQDIFGKTPADIAADAGHEDIAEVLQKAAGSPTPTPTTPTPTPTTPTPTPTGSDLGKKLLEAARAGQDDEVRELLKAGADVNAKDYFSHTPLHLAARNGHLKIVEVLLKAGADVNAKDFAGKTPLHLAANEGHLEIVEVLLKAGADVNAQDIFGKTPADIAADAGHEDIAEVLQKAAGSPTPTPTTPTPTPTTPTPTPTGSDLGKKLLQAARAGQLDEVRELLKAGADVNAKDREGITPLHLAAQHGHLEIVEVLLKAGADVNAKDVWGRTPLHLAAWQGHLEIVEVLLKAGADVNAKDLAGATPLHVAALYGHLEIVEVLLKAGADVNAQDKSGKTPADLAARAGHQDIAEVLQKAAGSPTPTPTTPTPTPTTPTPTPTGSDLGKKLLQAARAGQLDEVRELLKAGADVNAKDREGKTPLHVAAQEGHLEIVEVLLKAGADVNAKDVWGRTPLHLAAWIGHLEIVEVLLKAGADVNAKDVSGATPLHAAALHGHLEIVEVLLNAGADVNAQDKSGKTPADLAARAGHQDIAEVLQKAAGSPTPTPTTPTPTPTTPTPTPTGSDLGKKLLQAARAGQLDEVRELLKAGADVNAKDREGITPLHLAAQHGHLEIVEVLLKAGADVNAKDVWGRTPLHLAAWQGHLEIVEVLLKAGADVNAKDLAGATPLHVAALYGHLEIVEVLLKAGADVNAQDKSGKTPADLAARAGHQDIAEVLQKAA
Molecule B12 came in with an on-rate constant (kon) in assay [10] of 1.54e+06 M⁻¹ s⁻¹.

B13: vS07_26C03 (designed binder)
chain: MRGSHHHHHHGSDLGWKLLWAAQVGQDDEVRILLAAGADVNAKDDLGWTPLHIAAWVGHLEIVEVLLKAGADVNAKDFTGRTPLHHAATEGHLEIVKVLLKAGADVNAQDDVGHTPADLAALWGHEDIAEVLQKAA
notes: also called RN2
With B13, the binding result in the assay with bio-RBD Fc Acro is recorded as “binds”. Moreover, in the assay with bio-S ecto Sino [7], the Kd is 23 nM.

B14: vS07_19G10 (designed binder)
chain: MRGSHHHHHHGSDLGNKLLDAAWVGQDDEVRILLAAGADVNAKDWQGETPLHLAATKGHLEIVEVLLKAGADVNAKDVVGYTPLHVAASQGHLEIVEVLLKAGADVNAQDVHGYTPADLAAQAGHEDIAEVLQKAA
notes: also called R2a
B14: the binding result with bio-RBD Fc Acro was “binds”. This molecule also gave a Kd with bio-S ecto Sino [7] of 0.26 nM. Also, in the assay with bio-S ecto Sino [8], the koff was determined as 0.000179 s⁻¹ and the kon worked out at 693000 M⁻¹ s⁻¹.

One may read the Kd as the equilibrium constant for the complex coming apart. Low values mean higher affinity, high ones lower affinity. A word on the koff: it is a measure of how fast the partners let go of each other. High values mean a short-lived complex, low ones a long-lived complex. Usually kon stands for the second-order rate constant of association. Low readings indicate slow association, high ones fast association.
